According to PMC10220053, “Molecular basis for Eaf3-mediated assembly of Rpd3S and NuA4” (Cell Discovery, 2023):
Each block holds one binder with its values, some of them ahead of it.

B2: Rco1^PHD1–SID (aa 240–376) (domain or fragment, S. cerevisiae, UniProt Q04779 240-376, looked up)
chain: SNASEKIFRDKNNSTIDFENEDFCSACNQSGSFLCCDTCPKSFHFLCLDPPIDPNNLPKGDWHCNECKFKIFINNSMATLKKIESNFIKQNNNVKIFAKLLFNIDSHNPKQFQLPNYIKETFPAVKTGSRGQYSDEN
notes: also called Rco1^SID1–PHD

Assays:
[1] = biological target: T1, C-terminal MRG domain of Eaf3 (Eaf3^MRG, aa 218–401) (S. cerevisiae, UniProt Q12432 218-401); experiment: ITC; SUMO–Eaf7^108–143 or SUMO alone with Eaf3^MRG or the Eaf3^MRG–Rco1^PHD1–SID complex; conditions: both partners purified
T1 construct: Eaf3, S. cerevisiae, C-terminal MRG domain, aa 218–401
T1 sequence (looked up): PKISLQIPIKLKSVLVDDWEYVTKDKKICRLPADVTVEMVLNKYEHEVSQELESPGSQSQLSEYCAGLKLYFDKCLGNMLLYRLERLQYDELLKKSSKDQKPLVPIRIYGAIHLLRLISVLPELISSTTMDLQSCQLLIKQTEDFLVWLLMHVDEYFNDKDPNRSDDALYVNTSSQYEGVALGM

[2] = biological target: T1, C-terminal MRG domain of Eaf3 …; experiment: pull-down; GST pull-down / affinity pull-down of Eaf3^MRG (wild type and mutants) with Rco1^PHD1–SID (wild type, mutants, truncation); which partner carried GST is not told
[3] = biological target: B2; experiment: crystal structure; Eaf3^MRG–Rco1^PHD1–SID–H3K4me0^1–12 ternary complex, 1.60 Å; conditions: both partners purified
Rco1^PHD1 alone = biological target: T2, Rco1^PHD1 alone (S. cerevisiae, Zn2+-bound PHD finger. Limits for PHD1 alone are not given; taken from the SID-deleted truncation Rco1 240-313 in the text, which covers PHD1 (zinc finger 260-309)); experiment: ITC; H3 1–12 peptides with the Eaf3^MRG–Rco1^PHD1–SID complex or with Rco1^PHD1 alone; conditions: both partners purified
T2 chain: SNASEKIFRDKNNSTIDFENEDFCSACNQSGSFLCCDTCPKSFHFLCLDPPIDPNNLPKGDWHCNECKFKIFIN

Kd [1]: 1 µM
B1: SUMO–Eaf7^108–143 (domain or fragment, S. cerevisiae, UniProt P53911 108-143, looked up)
chain: EETLLELNNRIRVRKQDFTLPWEEYGELILENARKS

Binder: B2
binding result [2]: binds

binding result [3]: binds
Kd (Rco1^PHD1 alone): 110 µM
B3: H3K4me0^1–12 peptide (peptide, UniProt P61830 2-13, looked up)
peptide: ARTKQTARKSTG
notes: Histone H3, residues 1–12, Lys4 unmodified; also called H3K4me0 peptide; unmodified H3K4
